These results are taken from US11198713B2, “Agents modulating beta-catenin functions and methods thereof” (FOG PHARMACEUTICALS, INC., priority 2017, dated 2021).

Numbered stars: 1 amine (or outer) side, 2 acyl side, 3 side chain; on linkers, the order of the positions; unused ones are H or OH. Bridge positions count the residues as written; N and C are the ends. Square brackets hold non-standard residues; d marks the D form. Primed or numbered codes have the meaning given here. MB(10) = Monomer B = PyrS, pyrrolidine stapling residue with allyl carbamate, (S)-3-amino-1-(allyloxycarbonyl)pyrrolidine-3-carboxylic acid, C=CCOC(=O)N1CC[C@@](N[*:1])(C(=O)[*:2])C1; MB(8) = Monomer B (PyrS), pyrrolidine stapling residue bearing N-allyl carbamate (Alloc), forms carbamate staple with R8 by ring-closing olefin metathesis, i to i+7; MB(9) = Monomer B (PyrS), pyrrolidine stapling residue with N-allyloxycarbonyl (Alloc), forms a carbamate staple with R8 by olefin metathesis; 2Pal = N[C@@H](Cc1ccccn1)C(=O)O; R8 = C=CCCCCCC[C@@](C)(N)C(=O)O

For assay [1], the target named is T1, full-length beta-catenin (Axin site) (Homo sapiens, UniProt P35222).
T1 construct: 15 nM full-length beta-catenin, 20 nM FITC labeled peptide in buffer
T1 sequence (P35222 1-781): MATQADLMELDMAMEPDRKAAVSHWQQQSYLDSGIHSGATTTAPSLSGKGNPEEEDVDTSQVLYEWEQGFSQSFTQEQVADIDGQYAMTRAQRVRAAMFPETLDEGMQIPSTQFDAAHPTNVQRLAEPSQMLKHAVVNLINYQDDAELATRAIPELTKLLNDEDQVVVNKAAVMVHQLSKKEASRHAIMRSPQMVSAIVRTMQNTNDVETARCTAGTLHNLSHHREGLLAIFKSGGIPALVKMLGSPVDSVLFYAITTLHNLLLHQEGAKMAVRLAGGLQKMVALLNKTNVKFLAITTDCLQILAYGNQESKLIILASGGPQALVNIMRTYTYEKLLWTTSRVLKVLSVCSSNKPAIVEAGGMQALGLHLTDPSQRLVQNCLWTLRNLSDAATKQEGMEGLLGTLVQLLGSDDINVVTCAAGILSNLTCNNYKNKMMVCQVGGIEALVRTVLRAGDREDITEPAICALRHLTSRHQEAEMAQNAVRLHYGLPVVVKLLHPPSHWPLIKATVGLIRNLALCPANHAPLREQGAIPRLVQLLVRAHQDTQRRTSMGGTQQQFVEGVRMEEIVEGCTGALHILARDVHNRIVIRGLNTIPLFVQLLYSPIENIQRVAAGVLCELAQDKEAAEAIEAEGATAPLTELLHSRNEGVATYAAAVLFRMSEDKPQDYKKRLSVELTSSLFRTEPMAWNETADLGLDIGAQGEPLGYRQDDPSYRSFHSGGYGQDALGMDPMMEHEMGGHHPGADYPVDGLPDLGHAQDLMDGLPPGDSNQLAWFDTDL
Put plainly: Competition fluorescence polarization assay (Axin site probe). Conditions: competition fluorescence polarization, Table 2; read-out: in vitro FP EC50. In kind it is binding. Summed up:
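Competition FP: 15 nM full-length β-catenin pre-incubated 5 min with 20 nM FITC-labelled stapled Axin-site peptide, then titrated peptide added (3-fold series from 5 μM) for 15 min in the dark. Buffer 50 mM Tris pH 8.0, 250 mM NaCl, 2% glycerol, 0.5 mM EDTA; duplicate reads.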
(In general: Fluorescence polarisation rises when a labelled molecule tumbles more slowly, as on binding a larger partner.)

A further assay addresses T2, full-length beta-catenin (UniProt P35222 2-781, limits assumed).
T2 construct: mature; also called full-length ß-Catenin; β-catenin
T2 sequence (looked up): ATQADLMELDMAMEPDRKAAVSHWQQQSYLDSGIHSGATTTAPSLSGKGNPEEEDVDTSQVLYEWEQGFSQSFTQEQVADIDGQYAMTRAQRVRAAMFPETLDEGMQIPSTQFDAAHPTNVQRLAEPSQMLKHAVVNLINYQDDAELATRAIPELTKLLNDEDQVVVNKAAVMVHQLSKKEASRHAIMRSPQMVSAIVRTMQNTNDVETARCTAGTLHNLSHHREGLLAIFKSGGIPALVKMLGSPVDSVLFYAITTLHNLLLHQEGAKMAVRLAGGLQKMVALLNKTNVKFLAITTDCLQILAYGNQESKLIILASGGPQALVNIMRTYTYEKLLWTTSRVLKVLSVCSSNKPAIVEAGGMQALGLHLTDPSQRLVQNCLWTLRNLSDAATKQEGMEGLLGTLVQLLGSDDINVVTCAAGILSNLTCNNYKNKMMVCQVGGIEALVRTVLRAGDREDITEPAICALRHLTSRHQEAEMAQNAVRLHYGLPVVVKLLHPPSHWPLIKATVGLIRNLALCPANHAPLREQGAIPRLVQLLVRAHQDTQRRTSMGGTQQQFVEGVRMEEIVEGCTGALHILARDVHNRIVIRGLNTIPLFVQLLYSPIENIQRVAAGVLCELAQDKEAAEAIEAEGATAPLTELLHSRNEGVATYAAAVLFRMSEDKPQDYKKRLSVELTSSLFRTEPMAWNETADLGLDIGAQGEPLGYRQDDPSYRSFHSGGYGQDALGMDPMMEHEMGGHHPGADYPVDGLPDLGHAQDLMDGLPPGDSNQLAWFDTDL
Put plainly: competition FP; NB = no binding detected. The method, then:
In some embodiments, a competition fluorescence polarization assay is used to assess binding of provided compounds to beta-catenin. In an exemplary procedure, solutions of provided compounds, e.g., provided stapled peptides, were prepared in a buffer (e.g., 50 mM Tris pH 8.0, 250 mM NaCl, 2% glycerol, 0.5 mM EDTA, 0.02% w/v sodium azide) using a 3-fold serial dilution from 5 µM. Probe solution (15 nM full-length ß-Catenin, 20 nM FITC labeled peptide in buffer) was prepared and incubated for a period of time, e.g., 5 minutes, and the a volume, e.g., 40 µL per well plated in suitable plate, e.g., a black polystyrene 384-well plate (Corning). Equal volume of the serial diluted peptide was added to the plate and incubated protected from light for 15 minutes prior to read. Reads were performed on a Spectramax M5 (Molecular Devices) in duplicate. Suitable probe was FITC-PEG1-PQ-S5-ILD-S5-HVRRVWR (SEQ ID NO: 1) (hydrocarbon staple formed by two S5 via olefin metathesis) and/or FITC-bA-PQ-S5-ILD-S5-HVRRVWR (SEQ ID NO: 3) (hydrocarbon staple formed by two S5 via olefin metathesis). […] Another peptide, FPO217c (Ac-AR_8ILDAHIM$B5$RVW (SEQ ID NO: 280), with N-terminal proline removed and valine replaced with isoleucine compared to FP0025c) was prepared.

Usually EC50 stands for the concentration at which the effect is half-maximal. On to `CC[C@H](C)[C@@H]1NC(=O)[C@H](Cc2c[nH]cn2)NC(=O)[C@H](C)NC(=O)[C@H](CC(=O)O)NC(=O)[C@H](CC(C)C)NC(=O)[C@H]([C@@H](C)CC)NC(=O)[C@](C)(NC(=O)[C@H](C)NC(C)=O)CCCCCCC=CCOC(=O)N2CC[C@@](C(=O)N[C@@H](CCCNC(=NC)NC)C(=O)N[C@H](C(=O)N[C@@H](Cc3c[nH]c4ccccc34)C(N)=O)C(C)C)(C2)NC1=O` [FP0640c, Ac-A-R8-I-L-D-A-H-I-MB-SDMA-V-W-NH2], for which the EC50 in assay [1] is less than 100 nM.

Consider `CC[C@H](C)[C@@H]1NC(=O)[C@H](Cc2c[nH]cn2)NC(=O)[C@H](C)NC(=O)[C@H](CC(=O)O)NC(=O)[C@](C)(CC(C)C)NC(=O)[C@H]([C@@H](C)CC)NC(=O)[C@](C)(NC(=O)[C@H](C)NC(C)=O)CCCCCCC=CCOC(=O)N2CC[C@@](C(=O)N[C@@H](CCCNC(=N)N)C(=O)N[C@H](C(=O)N[C@@H](Cc3c[nH]c4ccccc34)C(N)=O)C(C)C)(C2)NC1=O` [FP0644c, Ac-A-R8-I-aMeL-D-A-H-I-MB-R-V-W-NH2], for which the EC50 in assay [1] was in the range of 100 to 500 nM.

`CC[C@H](C)[C@@H]1NC(=O)[C@H](Cc2c[nH]cn2)NC(=O)C(C)(C)NC(=O)[C@H](CC(=O)O)NC(=O)[C@H](CC(C)C)NC(=O)[C@H]([C@@H](C)CC)NC(=O)[C@](C)(NC(=O)[C@H](C)NC(C)=O)CCCCCCC=CCOC(=O)N2CC[C@@](C(=O)N[C@@H](CCCNC(=N)N)C(=O)N[C@H](C(=O)N[C@@H](Cc3c[nH]c4ccccc34)C(N)=O)C(C)C)(C2)NC1=O` [FP0645c, Ac-A-R8-I-L-D-Aib-H-I-MB-R-V-W-NH2]: in assay [1], the EC50 is less than 100 nM.

In the case of AXILDAHAXRVW (not fully specified; Ac-A-R8-I-L-D-A-H-A-MB-R-V-W-NH2; carbamate staple R8/MB) [FP0409c], the binding result in the assay with full-length beta-catenin was “no binding”.

As for Ac-A[R8]ILDA[2Pal]I[MB(9)]NVW-NH2 (staple 2-9; not fully specified; printed as Ac-A-R8-I-L-D-A-2pyr-I-MB-N-V-W-NH2) [FP0558c Isomer 1], the binding result with full-length beta-catenin was “no binding”.

Consider Ac-A[R8]ILDA[2Pal]I[MB(8)]QVW-NH2 (staple 2-9; not fully specified; printed as Ac-A-R8-I-L-D-A-2pyr-I-MB-Q-V-W-NH2) [FP0559c Isomer 2], for which, in the assay with full-length beta-catenin, the binding result is recorded as “no binding”.

For the molecule Ac-A[R8]ILDA[2Pal]I[MB(10)]FVW-NH2 (staple 2-9; not fully specified; printed as Ac-A-R8-I-L-D-A-2pyr-I-MB-F-V-W-NH2) [FP0555c Isomer 1], the binding result with full-length beta-catenin was “no binding”.

Ac-A[R8]ILDA[2Pal]I[MB(9)]NVW-NH2 (staple 2-9; not fully specified; printed as Ac-A-R8-I-L-D-A-2pyr-I-MB-N-V-W-NH2) [FP0558c Isomer 2]: the binding result with full-length beta-catenin is listed as “no binding”.

Turning to Ac-A[R8]ILDA[2Pal]I[MB(9)]LVW-NH2 (staple 2-9; not fully specified; printed as Ac-A-R8-I-L-D-A-2pyr-I-MB-L-V-W-NH2) [FP0557c Isomer 1], the binding result with full-length beta-catenin is given as “no binding”.

As for Ac-A[R8]ILDA[2Pal]I[MB(9)]QVW-NH2 (staple 2-9; not fully specified; printed as Ac-A-R8-I-L-D-A-2pyr-I-MB-Q-V-W-NH2) [FP0559c Isomer 1], in the assay with full-length beta-catenin, the binding result was “no binding”.

As to Ac-A[R8]ILDA[2Pal]I[MB(10)]AVW-NH2 (staple 2-9; not fully specified; printed as Ac-A-R8-I-L-D-A-2pyr-I-MB-A-V-W-NH2) [FP0554c Isomer 1], in the assay with full-length beta-catenin, the binding result is “no binding”.

Turning to Ac-A[R8]ILDA[2Pal]I[MB(10)]IVW-NH2 (staple 2-9; not fully specified; printed as Ac-A-R8-I-L-D-A-2pyr-I-MB-I-V-W-NH2) [FP0556c Isomer 2], the binding result in the assay with full-length beta-catenin is given as “no binding”.

On to Ac-A[R8]ILDA[2Pal]I[MB(10)]FVW-NH2 (staple 2-9; not fully specified; printed as Ac-A-R8-I-L-D-A-2pyr-I-MB-F-V-W-NH2) [FP0555c Isomer 2], for which, in the assay with full-length beta-catenin, the binding result is “no binding”.

Turning to Ac-A[R8]ILDA[2Pal]I[MB(8)]SVW-NH2 (staple 2-9; not fully specified; printed as Ac-A-R8-I-L-D-A-2pyr-I-MB-S-V-W-NH2) [FP0560c Isomer 1], the binding result in the assay with full-length beta-catenin is reported as “no binding”.

For Ac-A[R8]ILDA[2Pal]I[MB(10)]AVW-NH2 (staple 2-9; not fully specified; printed as Ac-A-R8-I-L-D-A-2pyr-I-MB-A-V-W-NH2) [FP0554c Isomer 2], the binding result with full-length beta-catenin is “no binding”.

As for Ac-A[R8]ILDA[2Pal]I[MB(8)]TVW-NH2 (staple 2-9; not fully specified; printed as Ac-A-R8-I-L-D-A-2pyr-I-MB-T-V-W-NH2) [FP0561c Isomer 1], the binding result with full-length beta-catenin is recorded as “no binding”.

As for Ac-A[R8]ILDA[2Pal]I[MB(9)]LVW-NH2 (staple 2-9; not fully specified; printed as Ac-A-R8-I-L-D-A-2pyr-I-MB-L-V-W-NH2) [FP0557c Isomer 2], in the assay with full-length beta-catenin, the binding result is recorded as “no binding”.

Take Ac-A[R8]ILDA[2Pal]I[MB(10)]IVW-NH2 (staple 2-9; not fully specified; printed as Ac-A-R8-I-L-D-A-2pyr-I-MB-I-V-W-NH2) [FP0556c Isomer 1]: the binding result with full-length beta-catenin is given as “no binding”.

Consider Ac-A[R8]ILDA[2Pal]I[MB(8)]SVW-NH2 (staple 2-9; not fully specified; printed as Ac-A-R8-I-L-D-A-2pyr-I-MB-S-V-W-NH2) [FP0560c Isomer 2], for which, in the assay with full-length beta-catenin, the binding result is recorded as “no binding”.

With Ac-A[R8]ILDAFI[MB(10)]RVW-NH2 (staple 2-9) [FP0540c], the binding result with full-length beta-catenin is listed as “no binding”.
